# Assay results taken from PMC4566977, “Identification and characterization of Arabidopsis AtNUDX9 as a GDP-d-mannose pyrophosphohydrolase: its involvement in root growth inhibition in response to ammonium” (Journal of Experimental Botany, 2015).
# B1: AtNUDX9 (Arabidopsis thaliana) (protein)
# chain: MAKLAEEMNPEGSRYQLLLSCPSGLSPSQVSVDFSKSHDRIPRQDPGLEDSISQVWEQRSQGNSSLFNGQKFRYGGYCLDDDDGSTNEVPHVCLRLGLTDYRTFVGTNLSSLWEKFLVTSEDDSVRCRHTSSPLGNGAVIETSDKKIIVLRRSNNVGEFPGHYVFPGGHPEPTAVGIDYHQLENNVQTGEVLNKKVTQEMFDSIICEVVEETGIPASSLSSPLFIGISRRELNVRPAMFFYLKCSHHSDDIQRLYSSAEDGFESTQLHTVSLDELKMMTSRMPGCHHGGFALYELMLQRLKNTKETSLIAT
# notes: recombinant with hexahistidine tag (pCold II), expressed in E. coli BL21(DE3) pLysS, His Trap HP purified
# Substrate: Nc1nc2c(ncn2[C@@H]2O[C@H](COP(=O)(O)OP(=O)(O)O[C@H]3O[C@H](CO)[C@@H](O)[C@H](O)[C@@H]3O)[C@@H](O)[C@H]2O)c(=O)[nH]1
# Assay: purified protein
# Format: biochemical, Arabidopsis thaliana
# Conditions: 50 mM Tris-HCl pH 8.0, 5 mM MgCl2, 37 °C, 10 min, GDP-D-Man 50 μM to 2 mM, apparent Km
protein,measurement,value
B1,Km,376 ± 24 µM
same,Vmax,1.61 µmol/min/mg
same,kcat,0.93 ± 1.5 s⁻¹
same,kcat/Km,2400 M⁻¹ s⁻¹
